Columns and labels:
[1] = target: Dm RNase H1 (amino acids 17-333), bacterially expressed (Drosophila melanogaster)
RNase H1 D252N [2] = target: T1, RNase H1 D252N (Drosophila melanogaster, UniProt A1Z769 17-333, D252N); assay: EMSA; BLI: 30 mM Tris-HCl pH 8.0, 100 mM KCl, 10% glycerol, 10 mM EDTA, 2 mM DTT, 400 ug/ml BSA, 30 C; EMSA: 25 mM Tris-HCl pH 8.0, 25 mM KCl, 1 mM DTT, 10 mM EDTA, 20 ug/ml BSA, room temperature, 30 min; settings: protein: recombinant, tags: C-terminal 6xHis (+2 vector residues), blunt
T1 sequence: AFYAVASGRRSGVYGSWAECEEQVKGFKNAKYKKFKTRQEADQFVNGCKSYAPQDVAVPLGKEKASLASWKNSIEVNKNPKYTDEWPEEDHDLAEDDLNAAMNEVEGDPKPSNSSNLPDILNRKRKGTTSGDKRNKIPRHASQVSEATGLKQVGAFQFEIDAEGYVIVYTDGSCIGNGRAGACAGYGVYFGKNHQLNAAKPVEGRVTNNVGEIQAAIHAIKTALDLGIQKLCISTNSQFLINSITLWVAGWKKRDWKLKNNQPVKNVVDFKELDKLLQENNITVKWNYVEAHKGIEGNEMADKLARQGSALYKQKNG

RNase H1 ΔII/III D252N = target: T2, RNase H1 ΔII/III D252N (Drosophila melanogaster, UniProt A1Z769 17-333, D252N;del66-141); assay: as above; settings: protein: recombinant, tags: C-terminal 6xHis, blunt
T2 sequence: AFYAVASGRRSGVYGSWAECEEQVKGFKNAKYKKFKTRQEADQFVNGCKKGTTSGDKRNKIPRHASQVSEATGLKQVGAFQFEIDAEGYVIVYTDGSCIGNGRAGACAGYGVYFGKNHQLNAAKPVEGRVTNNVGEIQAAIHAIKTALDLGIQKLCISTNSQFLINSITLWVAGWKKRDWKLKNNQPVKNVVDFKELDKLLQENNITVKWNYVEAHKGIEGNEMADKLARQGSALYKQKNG

RNase H1 ΔII-V [3] = target: T3, RNase H1 ΔII-V (Drosophila melanogaster, UniProt A1Z769 17-65); assay: BLI; BLI: 30 mM Tris-HCl pH 8.0, 100 mM KCl, 10% glycerol, 10 mM EDTA, 2 mM DTT, 400 ug/ml BSA, 30 C; EMSA: 25 mM Tris-HCl pH 8.0, 25 mM KCl, 1 mM DTT, 10 mM EDTA, 20 ug/ml BSA, room temperature, 30 min; settings: protein: recombinant, tags: C-terminal 6xHis, blunt
T3 chain: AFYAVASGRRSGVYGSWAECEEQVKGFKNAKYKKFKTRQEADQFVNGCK

RNase H1 ΔIII-V [4] = target: T4, RNase H1 ΔIII-V (Drosophila melanogaster, UniProt A1Z769 17-87); assay: as above; settings: protein: recombinant, tags: C-terminal 6xHis, blunt
T4 sequence: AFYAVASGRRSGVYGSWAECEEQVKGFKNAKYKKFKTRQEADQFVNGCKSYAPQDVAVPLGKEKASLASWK

RNase H1 ΔIV/V [5] = target: T5, RNase H1 ΔIV/V (Drosophila melanogaster, UniProt A1Z769 17-142); assay: as above; settings: protein: recombinant, tags: C-terminal 6xHis, blunt
T5 sequence: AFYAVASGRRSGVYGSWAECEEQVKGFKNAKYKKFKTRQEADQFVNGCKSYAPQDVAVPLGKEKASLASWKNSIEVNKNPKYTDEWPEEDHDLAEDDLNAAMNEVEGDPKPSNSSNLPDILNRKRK

RNase H1 ΔII-V [6] = target: T3, RNase H1 ΔII-V; assay: EMSA; supershift at high protein; BLI: 30 mM Tris-HCl pH 8.0, 100 mM KCl, 10% glycerol, 10 mM EDTA, 2 mM DTT, 400 ug/ml BSA, 30 C; EMSA: 25 mM Tris-HCl pH 8.0, 25 mM KCl, 1 mM DTT, 10 mM EDTA, 20 ug/ml BSA, room temperature, 30 min; settings: protein: recombinant; tags: C-terminal 6xHis; blunt
RNase H1 ΔIII-V [7] = target: T4, RNase H1 ΔIII-V; assay: as above; settings: protein: recombinant; tags: C-terminal 6xHis; blunt
RNase H1 ΔIV/V [8] = target: T5, RNase H1 ΔIV/V; assay: as above; settings: protein: recombinant; tags: C-terminal 6xHis; blunt
RNase H1 ΔI/II D252N = target: T6, RNase H1 ΔI/II D252N (Drosophila melanogaster, UniProt A1Z769 87-333, D252N); assay: EMSA; no supershift; BLI: 30 mM Tris-HCl pH 8.0, 100 mM KCl, 10% glycerol, 10 mM EDTA, 2 mM DTT, 400 ug/ml BSA, 30 C; EMSA: 25 mM Tris-HCl pH 8.0, 25 mM KCl, 1 mM DTT, 10 mM EDTA, 20 ug/ml BSA, room temperature, 30 min; settings: protein: recombinant; tags: C-terminal 6xHis; blunt
T6 sequence: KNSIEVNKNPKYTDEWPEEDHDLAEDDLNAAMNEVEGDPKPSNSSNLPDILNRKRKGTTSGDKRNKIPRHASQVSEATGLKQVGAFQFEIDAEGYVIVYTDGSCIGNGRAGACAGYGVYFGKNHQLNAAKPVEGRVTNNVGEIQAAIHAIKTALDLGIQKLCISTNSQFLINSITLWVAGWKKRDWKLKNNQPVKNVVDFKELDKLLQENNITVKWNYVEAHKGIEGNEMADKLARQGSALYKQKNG

RNase H1 ΔI-III D252N = target: T7, RNase H1 ΔI-III D252N (Drosophila melanogaster, UniProt A1Z769 142-333, D252N); assay: as above; settings: protein: recombinant; tags: C-terminal 6xHis; blunt
T7 sequence: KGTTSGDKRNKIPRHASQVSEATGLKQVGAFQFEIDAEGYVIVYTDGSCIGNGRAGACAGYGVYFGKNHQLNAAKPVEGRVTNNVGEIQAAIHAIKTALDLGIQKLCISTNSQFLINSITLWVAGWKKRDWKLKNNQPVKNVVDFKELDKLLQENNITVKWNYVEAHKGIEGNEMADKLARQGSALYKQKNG

RNase H1 D252N [9] = target: T1, RNase H1 D252N; assay: EMSA; second shift at high protein; BLI: 30 mM Tris-HCl pH 8.0, 100 mM KCl, 10% glycerol, 10 mM EDTA, 2 mM DTT, 400 ug/ml BSA, 30 C; EMSA: 25 mM Tris-HCl pH 8.0, 25 mM KCl, 1 mM DTT, 10 mM EDTA, 20 ug/ml BSA, room temperature, 30 min; settings: protein: recombinant; tags: C-terminal 6xHis (+2 vector residues); blunt
RNase H1 D252N [10] = target: T1, RNase H1 D252N; assay: EMSA; 1 or 10 uM protein; BLI: 30 mM Tris-HCl pH 8.0, 100 mM KCl, 10% glycerol, 10 mM EDTA, 2 mM DTT, 400 ug/ml BSA, 30 C; EMSA: 25 mM Tris-HCl pH 8.0, 25 mM KCl, 1 mM DTT, 10 mM EDTA, 20 ug/ml BSA, room temperature, 30 min; settings: protein: recombinant; tags: C-terminal 6xHis (+2 vector residues); label: 5' 32P; single strand

B1: Drosophila mitochondrial single-stranded DNA-binding protein, purified (natural protein)
chain: ATTTTAAAPAKVEKTVNTVTILGRVGADPQLRGSQEHPVVTFSVATHTNYKYENGDWAQRTDWHRVVVFKPNLRDTVLEYLKKGQRTMVQGKITYGEITDQQGNQKTSTSIIADDVLFFRDANN
For B1, the nuclease activity of 0.1 nM Dm RNase H1 on radiolabelled 30-bp RNA/DNA hybrid pre-incubated with mtSSB (0-500 nM), without ssDNA; densitometry [1] was 55%.

B2: 30-bp dsRNA (dsRNA)
RNA 1: AAGUAGGGCACGCUAUAGUUAGUCUUCGCG
RNA 2: CGCGAAGACUAACUAUAGCGUGCCCUACUU
B2: binds (RNase H1 D252N [2]; label: 5' biotin on S2 for BLI); binds (RNase H1 ΔII/III D252N; label: 5' biotin on S2 for BLI); no binding (RNase H1 ΔII-V [3]; label: 5' biotin on S2 for BLI). B2: no binding (RNase H1 ΔIII-V [4]; label: 5' biotin on S2 for BLI); no binding (RNase H1 ΔIV/V [5]; label: 5' biotin on S2 for BLI).

B3: 30-bp dsDNA (dsDNA)
DNA 1: AAGTAGGGCACGCTATAGTTAGTCTTCGCG
DNA 2: CGCGAAGACTAACTATAGCGTGCCCTACTT
B3: binds (RNase H1 D252N [2]; label: 5' biotin on S3 for BLI); binds (RNase H1 ΔII/III D252N; label: 5' biotin on S3 for BLI); no binding (RNase H1 ΔII-V [3]; label: 5' biotin on S3 for BLI). B3: no binding (RNase H1 ΔIII-V [4]; label: 5' biotin on S3 for BLI); no binding (RNase H1 ΔIV/V [5]; label: 5' biotin on S3 for BLI).

B4: 30-bp RNA/DNA hybrid (EMSA) (DNA:RNA)
RNA: B2 RNA 2
DNA: B3 DNA 1
B4: binds (RNase H1 ΔII-V [6]); binds (RNase H1 ΔIII-V [7]); binds (RNase H1 ΔIV/V [8]). B4: binds (RNase H1 ΔI/II D252N); binds (RNase H1 ΔI-III D252N); binds (RNase H1 ΔII/III D252N). B4: binds (RNase H1 D252N [9]).

B5: 30-nt ssRNA (ssRNA)
RNA: B2 RNA 2
B5: no binding (RNase H1 D252N [10]).

B6: 30-nt ssDNA (ssDNA)
DNA: B3 DNA 1
B6: no binding (RNase H1 D252N [10]).
